Test results published in US20240139329A1 (CALIFORNIA INSTITUTE OF TECHNOLOGY, published 2024).
Residue numbers refer to the chain shown, from its start.

Key:
[1] = molecular target: T1, Mouse SCA1 (LY6A), on cells (mouse, UniProt P05533 27-112); test: cell microarray, individual capsids, anti-AAV9 detection
T1 construct: whole, on cells; also called mouse LY6A
T1 sequence: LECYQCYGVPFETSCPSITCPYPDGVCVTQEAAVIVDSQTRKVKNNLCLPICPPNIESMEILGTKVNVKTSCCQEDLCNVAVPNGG

[2] = molecular target: T2, human interleukin 3 (IL3), expressed on microarray cells (human, UniProt P08700 20-152); test: cell microarray screen hit (title of Table 4)
T2 construct: also called hIL3
T2 sequence: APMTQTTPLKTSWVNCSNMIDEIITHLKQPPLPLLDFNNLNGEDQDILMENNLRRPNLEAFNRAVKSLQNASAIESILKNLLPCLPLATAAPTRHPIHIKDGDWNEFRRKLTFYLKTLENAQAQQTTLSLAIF

[3] = molecular target: T3, mouse LRP6-E1E2 (N-half, AA 20-628) tagged with Fc (mouse IgG2a) (mouse, UniProt O88572 20-628); test: SPR, target-Fc captured on protein A chip, AAV analyte (FIG. 20B)
T3 construct: not shown: mouse IgG2a Fc
T3 sequence: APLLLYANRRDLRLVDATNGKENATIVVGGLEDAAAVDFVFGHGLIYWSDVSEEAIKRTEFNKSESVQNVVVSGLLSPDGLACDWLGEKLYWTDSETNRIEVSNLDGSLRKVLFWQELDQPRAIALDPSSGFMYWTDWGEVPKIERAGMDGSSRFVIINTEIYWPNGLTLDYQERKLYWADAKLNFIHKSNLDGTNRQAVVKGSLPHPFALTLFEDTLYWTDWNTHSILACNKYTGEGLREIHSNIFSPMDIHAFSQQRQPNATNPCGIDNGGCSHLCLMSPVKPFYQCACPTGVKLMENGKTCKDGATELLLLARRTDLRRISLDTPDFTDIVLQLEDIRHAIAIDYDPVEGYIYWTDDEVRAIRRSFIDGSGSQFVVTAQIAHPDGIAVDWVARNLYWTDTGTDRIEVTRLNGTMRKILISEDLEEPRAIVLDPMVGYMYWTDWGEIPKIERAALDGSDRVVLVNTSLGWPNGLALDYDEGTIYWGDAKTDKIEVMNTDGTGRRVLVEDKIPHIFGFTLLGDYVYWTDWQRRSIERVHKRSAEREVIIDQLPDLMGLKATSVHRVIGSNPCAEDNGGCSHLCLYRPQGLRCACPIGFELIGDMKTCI

[4] = molecular target: T4, mouse LRP6-E3E4 (C-half, AA 629-1244) tagged with Fc (mouse IgG2a) (mouse, UniProt O88572 629-1244); test: as above
T4 construct: not shown: mouse IgG2a Fc
T4 sequence: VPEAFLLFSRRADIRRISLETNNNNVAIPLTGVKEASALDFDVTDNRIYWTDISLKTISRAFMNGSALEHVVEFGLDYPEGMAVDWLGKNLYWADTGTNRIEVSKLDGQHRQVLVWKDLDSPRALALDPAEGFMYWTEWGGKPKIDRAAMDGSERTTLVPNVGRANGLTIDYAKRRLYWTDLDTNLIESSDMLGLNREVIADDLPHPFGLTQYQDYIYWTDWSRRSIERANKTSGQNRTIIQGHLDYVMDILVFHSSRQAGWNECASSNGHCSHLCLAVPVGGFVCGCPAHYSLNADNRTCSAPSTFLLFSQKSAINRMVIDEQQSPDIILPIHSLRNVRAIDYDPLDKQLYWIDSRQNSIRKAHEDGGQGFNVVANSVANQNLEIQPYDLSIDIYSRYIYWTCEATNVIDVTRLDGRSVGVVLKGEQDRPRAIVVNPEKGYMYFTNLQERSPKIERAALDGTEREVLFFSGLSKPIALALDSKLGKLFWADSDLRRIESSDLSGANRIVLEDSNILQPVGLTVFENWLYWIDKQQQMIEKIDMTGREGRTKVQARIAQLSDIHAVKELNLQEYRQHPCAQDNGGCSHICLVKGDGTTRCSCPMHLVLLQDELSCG

[5] = molecular target: T1, Mouse SCA1 (LY6A), on cells; test: cell microarray screen hit (membrane)

B1: AAV-MaCPNS1 (other)
chain: MAADGYLPDWLEDNLSEGIREWWALKPGAPQPKANQQHQDNARGLVLPGYKYLGPGNGLDKGEPVNAADAAALEHDKAYDQQLKAGDNPYLKYNHADAEFQERLKEDTSFGGNLGRAVFQAKKRLLEPLGLVEEAAKTAPGKKRPVEQSPQEPDSSAGIGKSGAQPAKKRLNFGQTGDTESVPDPQPIGEPPAAPSGVGSLTMASGGGAPVADNNEGADGVGSSSGNWHCDSQWLGDRVITTSTRTWALPTYNNHLYKQISNSTSGGSSNDNAYFGYSTPWGYFDFNRFHCHFSPRDWQRLINNNWGFRPKRLNFKLFNIQVKEVTDNNGVKTIANNLTSTVQVFTDSDYQLPYVLGSAHEGCLPPFPADVFMIPQYGYLTLNDGSQAVGRSSFYCLEYFPSQMLRTGNNFQFSYEFENVPFHSSYAHSQSLDRLMNPLIDQYLYYLSRTINGSGQNQQTLKFSVAGPSNMAVQGRNYIPGPSYRQQRVSTTVTQNNNSEFAWPGASSWALNGRNSLMNPGPAMASHKEGEDRFFPLSGSLIFGKQGTGRDNVDADKVMITNEEEIKTTNPVATESYGQVATNHQSAQPHEGSSRAQAQTGWVQNQGILPGMVWQDRDVYLQGPIWAKIPHTDGNFHPSPLMGGFGMKHPPPQILIKNTPVPADPPTAFNKDKLNSFITQYSTGQVSVEIEWELQKENSKRWNPEIQYTSNYYKSNNVEFAVNTEGVYSEPRPIGTRYLTRNL
B1: no binding [1]; binds [2].

B2: AAV-BI30 (other)
chain: B1 chain with P589N, H590N, E591S, G592T, S593R, S594G, R595G
B2: binds [3]; no binding [4].

B3: AAV-MaCPNS2 (other)
chain: B1 chain with H590N, E591A, G592S, S593V, S594N, R595S
notes: also called AAV-MacCPNS2
B3: no binding [1]; binds [2].

B4: AAV.CAP-B22 (other)
chain: MAADGYLPDWLEDNLSEGIREWWALKPGAPQPKANQQHQDNARGLVLPGYKYLGPGNGLDKGEPVNAADAAALEHDKAYDQQLKAGDNPYLKYNHADAEFQERLKEDTSFGGNLGRAVFQAKKRLLEPLGLVEEAAKTAPGKKRPVEQSPQEPDSSAGIGKSGAQPAKKRLNFGQTGDTESVPDPQPIGEPPAAPSGVGSLTMASGGGAPVADNNEGADGVGSSSGNWHCDSQWLGDRVITTSTRTWALPTYNNHLYKQISNSTSGGSSNDNAYFGYSTPWGYFDFNRFHCHFSPRDWQRLINNNWGFRPKRLNFKLFNIQVKEVTDNNGVKTIANNLTSTVQVFTDSDYQLPYVLGSAHEGCLPPFPADVFMIPQYGYLTLNDGSQAVGRSSFYCLEYFPSQMLRTGNNFQFSYEFENVPFHSSYAHSQSLDRLMNPLIDQYLYYLSRTIDGQSSKSQTLKFSVAGPSNMAVQGRNYIPGPSYRQQRVSTTVTQNNNSEFAWPGASSWALNGRNSLMNPGPAMASHKEGEDRFFPLSGSLIFGKQGTGRDNVDADKVMITNEEEIKTTNPVATESYGQVATNHQSDGTLAVPFKAQAQTGWVQNQGILPGMVWQDRDVYLQGPIWAKIPHTDGNFHPSPLMGGFGMKHPPPQILIKNTPVPADPPTAFNKDKLNSFITQYSTGQVSVEIEWELQKENSKRWNPEIQYTSNYYKSNNVEFAVNTEGVYSEPRPIGTRYLTRNL
notes: also called AAV9.CAP-B22
B4: binds [5]; binds [2].
